Measurements taken from US20200079855A1 (Pfizer, published 2020).
Where “and” joins values, the source holds several entries; their conditions need not be identical. Equal values may be shown once. Values belong to the binder of their own block, whether it stands above or below them.

What was measured:
[1] = biological target: T1, human αvβ8 integrin on U251 cells (human, UniProt P06756 31-1048); assay: cell-based or functional assay
[2] = biological target: T2, recombinant human αvβ6 integrin (human, UniProt P06756 31-992; P18564 22-707); assay: ELISA (title Specificity Binding ELISA), absorbance 450 nm against [mAb] (nM)
T2 construct: Used in ELISA and immobilised on the Biacore chip; construct not described; also called hαvβ6; AVB6

[3] = biological target: T3, recombinant human αvβ3 integrin (human, UniProt P06756 31-992; P05106 27-718); assay: as above
T3 construct: Used in ELISA and immobilised on the Biacore chip; construct not described; also called hαvβ3; AVB3

[4] = biological target: recombinant human αvβ8 integrin (human) (UniProt P06756); assay: ELISA on human αvβ8 (legend box: human avb8), mAb titration
[5] = biological target: T1, human αvβ8 integrin on U251 cells; assay: apparent KD, flow cytometry on U251 cells
[6] = biological target: T1, human αvβ8 integrin on U251 cells; assay: flow cytometry, IgG binding to U251 cells (ΔMFI, background subtracted); EC50 unit inferred, axis Log10 [Ab] (nM); Table 7 of the text gives the rounded value as U251 app KD 823 pM
[7] = biological target: recombinant human αvβ8 integrin (human) (UniProt P06756); assay: SPR (Biacore), Fab affinity of Table 3
[8] = biological target: T1, human αvβ8 integrin on U251 cells; assay: cell-based or functional assay; remark: listed apart in the source
[9] = biological target: T4, recombinant mouse αvβ8 integrin (mouse, UniProt P43406 31-988; Q0VBD0 22-681, limits assumed); assay: SPR (Biacore T200), Fab over biotinylated recombinant αvβ8 on streptavidin chip, n>=3
T4 construct: Recombinant protein immobilised on the Biacore chip
Experimental: (§1) More specifically, recombinant αvβ8 integrin (e.g., R&D Systems) was biotin labeled via primary amines and immobilized on a Sensor Chip SA using a Biacore™ T200 instrument (GE Healthcare Life Sciences). Fab binding experiments were performed at 25° C. using a 30 μl/min flow rate in 0.01 M HEPES pH 7.4, 0.15 M NaCl, 1-2 mM MgCl₂, and 0.005% v/v surfactant P20 (HBS-P) buffer. Association was monitored for 5-10 minutes and dissociation for a further 15-20 minutes for each Fab concentration. After each injection, the chip surface was regenerated with IgG elution buffer (Thermo Fisher Scientific). All data was analyzed using the Biacore™ T200 Evaluation software. Data was dual background subtracted using the adjacent flow cell coupled with streptavidin without captured integrin, and buffer only injections. Kinetic constants for at least three experiments were obtained and reported as the mean.
(§2) To evaluate the monomeric KD of the Fab ADWA11 2.4, also referred to herein as ADWA-11 VH05-2/VK01(2.4) and ADWA11 5-2 2.4, and the parental mouse IgG, recombinant human, cynomolgus, mouse, and rat αvβ8 was immobilized on a Biacore chip and the ka and kd of the Fabs were determined as generally described herein (Table 6).

[10] = biological target: T5, recombinant cynomolgus monkey αvβ8 integrin (cynomolgus monkey, limits assumed); assay: as above
T5 construct: Recombinant protein immobilised on the Biacore chip; also called cyno αvβ8; cynomolgus αvβ8
T5 chain 1: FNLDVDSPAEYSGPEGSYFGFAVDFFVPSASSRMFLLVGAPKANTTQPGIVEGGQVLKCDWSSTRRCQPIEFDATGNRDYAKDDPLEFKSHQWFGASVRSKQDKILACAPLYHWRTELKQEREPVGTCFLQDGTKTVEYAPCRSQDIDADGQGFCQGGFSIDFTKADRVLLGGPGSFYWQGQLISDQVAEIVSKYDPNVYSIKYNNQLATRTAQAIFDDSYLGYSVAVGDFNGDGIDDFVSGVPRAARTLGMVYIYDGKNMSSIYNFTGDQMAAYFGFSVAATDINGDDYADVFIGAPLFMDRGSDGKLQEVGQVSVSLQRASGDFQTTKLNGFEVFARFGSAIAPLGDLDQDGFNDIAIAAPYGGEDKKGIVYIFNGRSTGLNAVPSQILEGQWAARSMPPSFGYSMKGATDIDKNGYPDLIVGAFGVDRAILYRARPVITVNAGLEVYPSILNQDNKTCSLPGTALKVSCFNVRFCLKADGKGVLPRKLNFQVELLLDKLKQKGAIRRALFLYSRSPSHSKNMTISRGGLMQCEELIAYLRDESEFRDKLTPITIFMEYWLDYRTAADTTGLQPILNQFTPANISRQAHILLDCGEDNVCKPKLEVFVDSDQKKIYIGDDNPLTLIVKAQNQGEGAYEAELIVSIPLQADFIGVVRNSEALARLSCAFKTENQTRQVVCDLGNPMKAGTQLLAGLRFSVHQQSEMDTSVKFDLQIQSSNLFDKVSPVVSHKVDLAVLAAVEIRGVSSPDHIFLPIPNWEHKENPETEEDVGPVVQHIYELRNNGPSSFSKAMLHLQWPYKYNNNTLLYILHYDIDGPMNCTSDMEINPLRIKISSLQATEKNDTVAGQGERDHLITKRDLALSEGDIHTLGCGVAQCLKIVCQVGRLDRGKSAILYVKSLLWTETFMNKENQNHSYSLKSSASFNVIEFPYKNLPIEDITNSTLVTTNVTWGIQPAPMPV
T5 chain 2: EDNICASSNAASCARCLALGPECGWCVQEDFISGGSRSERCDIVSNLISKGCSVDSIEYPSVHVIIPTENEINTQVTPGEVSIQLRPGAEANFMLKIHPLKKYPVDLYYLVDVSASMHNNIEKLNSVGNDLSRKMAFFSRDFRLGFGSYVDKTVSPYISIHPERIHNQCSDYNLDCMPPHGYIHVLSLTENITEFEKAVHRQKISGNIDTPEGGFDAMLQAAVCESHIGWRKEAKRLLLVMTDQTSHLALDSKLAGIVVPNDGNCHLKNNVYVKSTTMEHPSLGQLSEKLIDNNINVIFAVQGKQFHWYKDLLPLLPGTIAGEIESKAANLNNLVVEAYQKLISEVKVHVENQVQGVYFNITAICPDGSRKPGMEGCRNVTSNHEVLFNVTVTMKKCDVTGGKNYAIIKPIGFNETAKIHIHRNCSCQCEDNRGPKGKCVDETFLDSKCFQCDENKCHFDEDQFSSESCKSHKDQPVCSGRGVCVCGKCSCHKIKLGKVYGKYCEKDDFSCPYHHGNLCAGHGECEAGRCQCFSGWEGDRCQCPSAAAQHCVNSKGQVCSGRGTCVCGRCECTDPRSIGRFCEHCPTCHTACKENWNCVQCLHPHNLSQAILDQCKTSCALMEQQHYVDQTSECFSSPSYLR
Experimental: as §1, §2

[11] = biological target: recombinant human αvβ8 integrin (human) (UniProt P06756); assay: as above
[12] = biological target: T2, recombinant human αvβ6 integrin; assay: SPR (Biacore)
[13] = biological target: T3, recombinant human αvβ3 integrin; assay: SPR (Biacore)
[14] = biological target: recombinant human αvβ8 integrin (human) (UniProt P06756); assay: SPR (Biacore), Fab over immobilised recombinant αvβ8; the upper end is the human value of Tables 3 and 6
[15] = biological target: T1, human αvβ8 integrin on U251 cells; assay: flow cytometry, IgG binding to U251 cells (ΔMFI, background subtracted); EC50 unit inferred, axis Log10 [Ab] (nM); Table 7 of the text gives U251 app KD 430 pM
[16] = biological target: recombinant human αvβ8 integrin (human) (UniProt P06756); assay: ELISA (DELFIA counts) on human αvβ8, Fab titration
Target sequence in this assay (P06756 31-992 limits assumed, form in doubt, chain 1 of 2): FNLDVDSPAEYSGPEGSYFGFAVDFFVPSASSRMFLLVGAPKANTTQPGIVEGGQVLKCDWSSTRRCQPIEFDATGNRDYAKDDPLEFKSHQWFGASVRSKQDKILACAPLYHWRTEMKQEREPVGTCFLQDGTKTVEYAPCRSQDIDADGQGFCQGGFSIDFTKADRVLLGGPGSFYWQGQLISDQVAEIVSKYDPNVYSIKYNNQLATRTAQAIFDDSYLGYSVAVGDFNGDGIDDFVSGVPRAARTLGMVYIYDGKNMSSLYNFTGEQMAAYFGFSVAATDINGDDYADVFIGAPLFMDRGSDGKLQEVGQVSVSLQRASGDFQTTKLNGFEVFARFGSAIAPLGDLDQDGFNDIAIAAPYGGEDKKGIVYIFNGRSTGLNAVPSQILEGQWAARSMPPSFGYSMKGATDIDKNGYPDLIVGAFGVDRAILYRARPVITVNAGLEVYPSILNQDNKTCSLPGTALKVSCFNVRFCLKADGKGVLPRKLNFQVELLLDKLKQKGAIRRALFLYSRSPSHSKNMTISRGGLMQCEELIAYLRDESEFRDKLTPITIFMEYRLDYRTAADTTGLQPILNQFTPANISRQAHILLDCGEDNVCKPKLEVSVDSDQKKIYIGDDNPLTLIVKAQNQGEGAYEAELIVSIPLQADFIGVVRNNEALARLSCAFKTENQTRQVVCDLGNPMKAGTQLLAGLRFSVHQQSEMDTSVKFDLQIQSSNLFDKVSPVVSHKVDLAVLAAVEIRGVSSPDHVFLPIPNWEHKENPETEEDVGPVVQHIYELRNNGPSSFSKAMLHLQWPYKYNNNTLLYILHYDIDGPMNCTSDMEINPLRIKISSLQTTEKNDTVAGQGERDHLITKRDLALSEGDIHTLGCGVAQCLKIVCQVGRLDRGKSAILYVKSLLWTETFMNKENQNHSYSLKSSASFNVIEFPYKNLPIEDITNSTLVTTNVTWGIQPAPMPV
Target sequence in this assay (chain, as listed by the source limits assumed, form in doubt, chain 2 of 2): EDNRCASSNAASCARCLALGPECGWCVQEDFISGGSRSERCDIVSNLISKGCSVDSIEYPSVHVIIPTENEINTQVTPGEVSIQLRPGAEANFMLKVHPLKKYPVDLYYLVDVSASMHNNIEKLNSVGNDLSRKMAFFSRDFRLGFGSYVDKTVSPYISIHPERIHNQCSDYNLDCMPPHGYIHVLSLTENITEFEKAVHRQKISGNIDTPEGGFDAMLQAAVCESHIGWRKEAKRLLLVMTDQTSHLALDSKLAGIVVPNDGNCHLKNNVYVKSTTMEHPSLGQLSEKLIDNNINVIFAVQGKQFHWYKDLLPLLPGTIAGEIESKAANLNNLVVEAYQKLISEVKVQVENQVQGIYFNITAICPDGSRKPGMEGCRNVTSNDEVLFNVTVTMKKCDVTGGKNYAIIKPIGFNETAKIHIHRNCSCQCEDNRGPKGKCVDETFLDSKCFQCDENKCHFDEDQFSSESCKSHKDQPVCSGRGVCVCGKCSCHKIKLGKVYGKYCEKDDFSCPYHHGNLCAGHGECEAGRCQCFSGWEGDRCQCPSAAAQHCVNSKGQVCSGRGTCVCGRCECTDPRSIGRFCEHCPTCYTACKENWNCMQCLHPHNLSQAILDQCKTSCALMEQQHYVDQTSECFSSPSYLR

[17] = biological target: recombinant human αvβ8 integrin (human) (UniProt P06756); assay: ELISA (DELFIA counts) on human αvβ8, Fab titration; identity of the molecule see the row before
[18] = biological target: T6, recombinant rat αvβ8 integrin (rat, UniProt F1LZX9 31-987; A0A0G2JVU1 43-682); assay: SPR (Biacore T200), Fab over biotinylated recombinant αvβ8 on streptavidin chip, n>=3
T6 construct: Recombinant protein immobilised on the Biacore chip
Experimental: as §1, §2

T4 sequence (P43406 31-988 limits assumed, chain 1 of 2): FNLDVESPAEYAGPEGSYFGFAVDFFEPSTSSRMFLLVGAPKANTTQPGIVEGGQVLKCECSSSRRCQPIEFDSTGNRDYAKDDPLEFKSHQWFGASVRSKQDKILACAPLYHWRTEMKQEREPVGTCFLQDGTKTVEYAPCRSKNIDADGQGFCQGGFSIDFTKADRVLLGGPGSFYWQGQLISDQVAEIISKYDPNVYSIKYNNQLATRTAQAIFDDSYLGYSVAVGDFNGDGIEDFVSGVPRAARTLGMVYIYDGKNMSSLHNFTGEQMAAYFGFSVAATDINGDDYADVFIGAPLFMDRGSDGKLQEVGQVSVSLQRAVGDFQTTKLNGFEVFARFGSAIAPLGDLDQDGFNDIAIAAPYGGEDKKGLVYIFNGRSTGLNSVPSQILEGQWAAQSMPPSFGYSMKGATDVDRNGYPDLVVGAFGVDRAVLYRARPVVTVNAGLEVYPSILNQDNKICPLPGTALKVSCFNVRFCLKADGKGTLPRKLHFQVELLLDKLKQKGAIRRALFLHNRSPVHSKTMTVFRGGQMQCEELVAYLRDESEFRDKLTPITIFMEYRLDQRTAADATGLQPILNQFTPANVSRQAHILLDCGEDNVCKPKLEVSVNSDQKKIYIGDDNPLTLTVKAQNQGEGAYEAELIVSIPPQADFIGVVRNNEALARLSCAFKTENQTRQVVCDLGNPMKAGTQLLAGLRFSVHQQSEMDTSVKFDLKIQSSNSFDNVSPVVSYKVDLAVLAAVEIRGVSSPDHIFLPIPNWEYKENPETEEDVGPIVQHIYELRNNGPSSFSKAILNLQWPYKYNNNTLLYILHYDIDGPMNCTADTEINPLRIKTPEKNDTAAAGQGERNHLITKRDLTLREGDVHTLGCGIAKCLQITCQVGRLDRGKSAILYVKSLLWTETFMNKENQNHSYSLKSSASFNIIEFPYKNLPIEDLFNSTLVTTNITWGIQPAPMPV
T4 sequence (Q0VBD0 22-681 limits assumed, chain 2 of 2): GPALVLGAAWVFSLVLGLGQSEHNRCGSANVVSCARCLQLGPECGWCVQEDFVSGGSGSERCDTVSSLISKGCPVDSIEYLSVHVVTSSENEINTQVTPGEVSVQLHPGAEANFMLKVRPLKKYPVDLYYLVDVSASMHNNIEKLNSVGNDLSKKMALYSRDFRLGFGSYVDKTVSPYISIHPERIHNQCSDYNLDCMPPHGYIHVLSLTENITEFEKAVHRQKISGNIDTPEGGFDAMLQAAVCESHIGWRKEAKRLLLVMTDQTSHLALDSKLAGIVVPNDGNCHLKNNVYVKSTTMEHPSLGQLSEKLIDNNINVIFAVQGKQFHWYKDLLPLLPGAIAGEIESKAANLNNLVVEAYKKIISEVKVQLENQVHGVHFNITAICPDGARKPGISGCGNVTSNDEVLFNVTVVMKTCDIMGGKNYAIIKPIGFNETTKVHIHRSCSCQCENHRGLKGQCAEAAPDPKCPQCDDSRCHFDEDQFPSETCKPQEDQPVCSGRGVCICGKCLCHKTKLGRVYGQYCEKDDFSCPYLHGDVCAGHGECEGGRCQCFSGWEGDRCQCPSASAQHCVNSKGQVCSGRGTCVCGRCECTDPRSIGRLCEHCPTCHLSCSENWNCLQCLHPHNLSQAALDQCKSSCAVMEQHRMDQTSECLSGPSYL
T3 sequence (P05106 27-718 limits assumed, one chain of several): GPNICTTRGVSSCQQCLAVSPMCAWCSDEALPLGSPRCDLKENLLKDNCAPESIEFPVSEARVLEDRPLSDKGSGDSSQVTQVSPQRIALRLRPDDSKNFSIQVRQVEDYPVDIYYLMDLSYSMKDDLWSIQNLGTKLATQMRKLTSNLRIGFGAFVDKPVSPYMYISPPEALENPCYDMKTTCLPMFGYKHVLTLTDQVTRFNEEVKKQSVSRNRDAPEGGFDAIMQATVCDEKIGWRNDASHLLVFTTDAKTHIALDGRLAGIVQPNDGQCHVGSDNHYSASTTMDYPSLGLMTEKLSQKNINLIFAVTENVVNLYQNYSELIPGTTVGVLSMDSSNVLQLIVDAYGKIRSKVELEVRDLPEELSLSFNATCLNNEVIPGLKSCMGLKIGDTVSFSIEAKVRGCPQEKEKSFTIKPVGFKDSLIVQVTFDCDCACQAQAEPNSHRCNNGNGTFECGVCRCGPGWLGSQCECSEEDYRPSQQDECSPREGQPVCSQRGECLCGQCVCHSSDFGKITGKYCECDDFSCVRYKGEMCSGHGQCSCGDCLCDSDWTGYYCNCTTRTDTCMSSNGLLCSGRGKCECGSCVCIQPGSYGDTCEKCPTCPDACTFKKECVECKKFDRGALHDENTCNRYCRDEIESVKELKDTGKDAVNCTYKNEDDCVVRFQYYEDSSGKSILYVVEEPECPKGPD
T2 sequence (P18564 22-707 limits assumed, one chain of several): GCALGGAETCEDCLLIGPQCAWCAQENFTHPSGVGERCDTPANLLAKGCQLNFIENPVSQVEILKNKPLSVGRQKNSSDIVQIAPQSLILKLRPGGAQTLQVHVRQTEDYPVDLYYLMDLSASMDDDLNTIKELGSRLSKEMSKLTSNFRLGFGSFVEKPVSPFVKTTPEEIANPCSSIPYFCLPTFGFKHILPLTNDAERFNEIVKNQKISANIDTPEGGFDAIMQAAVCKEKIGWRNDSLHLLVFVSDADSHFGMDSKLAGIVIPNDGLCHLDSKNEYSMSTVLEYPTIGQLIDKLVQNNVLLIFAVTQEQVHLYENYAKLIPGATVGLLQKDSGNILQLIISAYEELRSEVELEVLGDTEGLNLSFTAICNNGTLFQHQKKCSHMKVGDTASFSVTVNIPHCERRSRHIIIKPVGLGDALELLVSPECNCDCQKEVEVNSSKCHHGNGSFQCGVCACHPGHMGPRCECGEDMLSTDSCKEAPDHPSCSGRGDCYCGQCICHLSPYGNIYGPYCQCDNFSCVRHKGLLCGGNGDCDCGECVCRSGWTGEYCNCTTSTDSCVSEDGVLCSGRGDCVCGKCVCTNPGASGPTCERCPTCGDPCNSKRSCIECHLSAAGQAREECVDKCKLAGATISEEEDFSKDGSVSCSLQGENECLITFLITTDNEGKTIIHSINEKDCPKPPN

- IgG Potency TGFB Assay IC50 (pM) [1]: 183 pM
- binding result [2]: no binding (tested: about 500 nM)
- binding result [3]: no binding (tested: about 500 nM)
- EC50 (read off the curve) [4]: 0.3 nM
B1: Mouse hybridoma antibody ADWA-11 (antibody, V domains shown)
VH: EVQLQQSGAELVRPGAFVKLSCKASGFNIKDYYMNWVLQRPEQGLEWIGWIDPDNGNTIYDPKFQGKASITADTSSNTAYLQLSSLTSEDTAVYYCARRLLMDYWGQGTSVTVSS
VL: DIVMTQAAPSVPVTPGESVSISCRSTKSLLHFNGNTYLFWFLQRPGQSPQRLIYYMSNLASGVPDRFSGRGSGTDFTLRISRVEAEDVGVYYCMQSLEYPFTFGTGTKLEIK
notes: Whole native murine IgG from the hybridoma; also called mADWA11; mADWA-11

- Kd [7]: 0.05 nM and < 0.1 nM
- fold lower KD than the mouse hybridoma antibody ADWA-11 [7]: > 5 fold
- EC50 (read off the curve) [16]: 1 nM
- EC50 value measured by apparent affinity in the TGF-β transactivation assay [8]: 1.3 nM
- EC50 (read off the curve) [17]: 1 nM
- Kd [9]: ≤ 0.1 nM
- koff [9]: ≤ 2e-05 s⁻¹
- kon [9]: 220000 M⁻¹ s⁻¹
- Kd [10]: ≤ 0.1 nM
- koff [10]: ≤ 2e-05 s⁻¹
- kon [10]: 225000 M⁻¹ s⁻¹
- Kd [18]: 0.16 nM
- koff [18]: 3.1e-05 s⁻¹
- kon [18]: 194000 M⁻¹ s⁻¹
- Kd [11]: 0.118 nM
- koff [11]: 2.37e-05 s⁻¹
- kon [11]: 200000 M⁻¹ s⁻¹
B5: ADWA11 VH05/VK01 Fab (Fab, V domains shown)
VH: EVQLVESGGGLVQPGGSLRLSCAASGFNIKDYYMNWVRQAPGKGLEWVGWIDPDNGNTIYDPKFQGRFTISADTSKNSAYLQMNSLRAEDTAVYYCARRLLMDYWGQGTLVTVSS
VL: DIQMTQSPSSLSASVGDRVTITCRSTKSLLHFNGNTYLFWYQQKPGKAPKRLIYYMSNLASGVPSRFSGSGSGTDFTLTISSLQPEDFATYYCMQSLEYPFTFGQGTKVEIK
notes: Fab; also called VH05-2_VK01 parental

More lines, now with the values behind:

B2: ADWA-11_4 mut (antibody, mouse IgG1, V domains shown)
VH: B1 VH
VL: B1 VL
- Kd [5]: 0.823 nM
- EC50 [6]: 0.823 nM

B3: Mouse hybridoma ADWA-11 Fab (Fab, V domains shown)
VH: B1 VH
VL: B1 VL
notes: Fab; also called mFab; Ms ADWA11 Fab
- Kd [7]: 0.536 nM
- kon [7]: 92200 M⁻¹ s⁻¹
- EC50 value measured by apparent affinity in the TGF-β transactivation assay [8]: 4.6 nM
- Kd [9]: 0.489 nM
- koff [9]: 5.03e-05 s⁻¹
- kon [9]: 103000 M⁻¹ s⁻¹
- Kd [10]: 0.507 nM
- koff [10]: 4.97e-05 s⁻¹
- kon [10]: 98100 M⁻¹ s⁻¹
- Kd [11]: 0.536 nM
- koff [11]: 4.86e-05 s⁻¹
- kon [11]: 92200 M⁻¹ s⁻¹
- binding result [12]: no binding
- binding result [13]: no binding
- Kd [14]: 0.489 to 0.536 nM

B4: hIgG_VH05VK01 (antibody, V domains shown)
VH: B5 VH
VL: DIQMTQSPSSLSASVGDRVTITCRSTKSLLHFNGNTYLFWYQQKPGKAPKRLIYYMSNLASGVPSRFSGSGSGTDFTLTISSLQPEDFATYYCMQSLEYPFTFGQGTKVEIKR
- IgG Potency TGFB Assay IC50 (pM) [1]: 148 pM
- EC50 [15]: 0.434 nM
- Kd [5]: 0.43 nM
